Data: US20230295301A1 (SHANGHAI JUNSHI BIOSCIENCES, published 2023)

T1: huCTLA-4 (human, UniProt P16410 36-161)
T1 construct: also called human CTLA (huCTLA) antigen; huCTLA4 recombinant protein
T1 sequence: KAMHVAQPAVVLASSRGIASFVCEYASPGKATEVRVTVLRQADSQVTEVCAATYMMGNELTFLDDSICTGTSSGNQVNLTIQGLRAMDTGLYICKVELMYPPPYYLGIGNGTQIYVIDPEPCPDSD

T2: TIGIT on 293T-TIGIT cells (UniProt Q495A1 22-244, limits assumed)
T2 construct: whole, on cells
T2 sequence (looked up): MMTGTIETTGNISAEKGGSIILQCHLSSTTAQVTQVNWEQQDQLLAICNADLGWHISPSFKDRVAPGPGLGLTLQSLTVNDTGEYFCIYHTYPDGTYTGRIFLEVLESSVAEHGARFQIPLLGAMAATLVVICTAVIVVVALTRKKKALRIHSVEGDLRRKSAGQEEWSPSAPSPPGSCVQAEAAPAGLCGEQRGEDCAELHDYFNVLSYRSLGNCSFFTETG

T3: huCTLA-4 expressed on cells (human, UniProt P16410 36-223)
T3 construct: the construct in the cells is not described; also called HuCTLA-4-expressing CHO cells; huCTLA-4-expressing Jurkat effector cells
T3 sequence: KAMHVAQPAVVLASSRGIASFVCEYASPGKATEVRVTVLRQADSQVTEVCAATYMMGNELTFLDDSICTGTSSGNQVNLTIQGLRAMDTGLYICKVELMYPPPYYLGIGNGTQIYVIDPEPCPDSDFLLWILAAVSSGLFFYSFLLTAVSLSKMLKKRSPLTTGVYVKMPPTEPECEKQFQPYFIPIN

T4: huCTLA-4 ECD (his-tag) (human, UniProt P16410 37-162)
T4 construct: also called HX1 hCTLA4 his; HX1 huCTLA4 his; not shown: his-tag
T4 sequence: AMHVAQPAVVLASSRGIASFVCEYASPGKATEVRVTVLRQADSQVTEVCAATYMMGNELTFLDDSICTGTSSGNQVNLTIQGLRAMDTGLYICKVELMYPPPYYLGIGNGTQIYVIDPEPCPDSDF


Key:
[1] = target: T1, huCTLA-4; assay: ForteBio
[2] = target: T5, BTLA on 293T-BTLA cells (UniProt Q7Z6A9 31-289, limits assumed); assay: flow cytometry on 293T-BTLA cells
T5 construct: whole, on cells
Experimental: (§1) Then the above cell mixture was incubated with 5 μL of APC-labeled murine secondary antibody (Southern Biotech) at 4° C. for 20 min, and the secondary antibody bound onto the cells was detected. The control antibody was selected from commercially available CTLA4 monoclonal antibody L3D10 (BioLegend) and TIGIT monoclonal antibody MBSA43 (eBioscience).

[3] = target: T2, TIGIT on 293T-TIGIT cells; assay: flow cytometry on 293T-TIGIT cells
Experimental: as §1

[4] = target: T1, huCTLA-4; assay: FACS blocking, huCTLA4 recombinant protein on CD80-expressing CHO cells; CD80-expressing CHO cells
Experimental: (§2) The chimeric antibodies in Table 3 and the control antibody ipilimumab (serially diluted 3-fold from an initial concentration of 30 μg/mL) were each added to CD80- or CD86-expressing CHO cells (constructed in-house by Junmeng) together with a certain concentration of huCTLA4 recombinant protein. After they were co-incubated at room temperature for 30 min, a fluorescent secondary antibody (PE-anti human IgG4) (Southern biotech) was added to determine the abilities of the chimeric antibodies to block the binding of huCTLA-4 to the CD80/CD86-expressing cells.

[5] = target: T1, huCTLA-4; assay: FACS blocking, huCTLA4 recombinant protein on CD86-expressing CHO cells; CD86-expressing CHO cells
Experimental: as §2

[6] = target: T3, huCTLA-4 expressed on cells; assay: FACS on huCTLA-4-expressing CHO cells
Experimental: (§3) 6.2 FACS Detection of Binding of Chimeric Antibodies to huCTLA-4-Expressing Cells HuCTLA-4-expressing cells (constructed in-house by Junmeng; CHO from ATCC) were co-incubated with each of the chimeric antibodies in Table 3 and the control antibody (ipilimumab) (serially diluted 3-fold from an initial concentration of 10 μg/mL) at room temperature for 30 min, and then a fluorescent secondary antibody (PE-anti human IgG) was added to detect the binding of the chimeric antibodies to the huCTLA-4-expressing cells.

[7] = target: T4, huCTLA-4 ECD (his-tag); assay: competition ELISA, coated huCTLA-4 his, competitor hCD80 Fc
Experimental: HX1 huCTLA4 his was diluted with PBS (Hyclone) to 1.0 μg/mL, and the dilution was added to a microplate at 100 μL/well. The plate was let stand in an incubator at 37° C. and incubated for 90 min and then washed, and 2% BSA was added to the plate at 200 μL/well. The plate was incubated in an incubator at 37° C. for 90 min and then washed. MX2 hCD80 Fc was diluted with 2% BSA to 5.0 μg/mL, and the dilution was used to dilute samples. The chimeric antibodies and the control antibody ipilimumab were diluted to 100 μg/mL. The dilution performed each time was not higher than 10-fold. Then, the chimeric antibodies and the control antibody were serially diluted 2.5-fold on a sample dilution plate. All the chimeric antibody solutions and the control antibody solution were added to a microplate at 100 μL/well. The plate was incubated in an incubator at 37° C. for 90 min and then washed. An HRP-conjugated goat anti-mouse antibody IgG (Fc specific) (Sigma, Catalog No. A2554) was diluted 5000-fold with 2% BSA, and the dilution was added to the microplate at 100 μL/well. The plate was incubated in an incubator at 37° C. for 60 min and then washed. The color development solution TMB was added at 100 μL/well, during which bubbles were avoided. Color development was allowed at 37° C. for 15 min in the dark and then terminated by adding 2 M hydrochloric acid solution at 100 μL/well, during which bubbles were avoided. Reading (wavelength: 450/620 nm) was done within 10 min using a microplate reader.

[8] = target: T4, huCTLA-4 ECD (his-tag); assay: ELISA, coated huCTLA-4 his
Summary of the method: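 Plates coated with his-tagged human CTLA-4 at 1.0 μg/mL for 90 min at 37° C, then blocked with 2% BSA. Antibodies serially diluted 2.5-fold from 1000 ng/mL and bound 60 min at 37° C. Detection by HRP anti-human IgG Fc and TMB (15 min), acid stop, absorbance at 450/620 nm.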

[9] = target: T4, huCTLA-4 ECD (his-tag); assay: ELISA: huCTLA-4 his coated at 1.0 µg/mL, antibody 2.5-fold dilutions from 1000 ng/mL, HRP goat anti-human IgG (Fc), OD 450 nm; unit from the axis 'Log ng/mL'
Experimental: HX1 hCTLA4 his was diluted with PBS (Hyclone) to 1.0 μg/mL, and the dilution was added to a microplate at 100 μL/well. The plate was let stand in an incubator at 37° C. and coated for 90 min and then washed, and 2% BSA was added to the plate at 200 μL/well. The plate was incubated in an incubator at 37° C. for 90 min and then washed. The chimeric antibodies in Table 3 and the control antibody (ipilimumab) were diluted with a diluent (2% BSA) to 1000 ng/mL. The dilution performed each time was not higher than 10-fold. Then, the chimeric antibodies and the control antibody were serially diluted 2.5-fold on a sample dilution plate. All the chimeric antibody solutions and the control antibody solution were added to a microplate at 100 μL/well. The plate was incubated in an incubator at 37° C. for 60 min and then washed. A horseradish peroxidase (HRP)-conjugated goat anti-human antibody IgG (Sigma, Catalog No. A0170) (Fc specific) was diluted 5000-fold with 2% BSA, and the dilution was added to the microplate at 100 μL/well. The plate was incubated in an incubator at 37° C. for 60 min and then washed. The color development solution TMB was added at 100 μL/well, during which bubbles were avoided. […] Reading (wavelength: 450/620 nm) was done within 10 min using a microplate reader.

[10] = target: T3, huCTLA-4 expressed on cells; assay: FACS: huCTLA-4-expressing CHO cells, antibody 3-fold dilutions from 10 µg/mL, PE anti-human IgG; unit from the axis 'log(JS007 concentration (ng/mL))'
Experimental: as §3

| Kd [1] [nM] | IC50 [4] [µg/mL] | IC50 [5] [ng/mL] | EC50 [6] [µg/mL] | IC50 [7] [µg/mL] | EC50 [8] [µg/mL] | Binder | binding result [2] | binding result [3] | also measured |
| --- | --- | --- | --- | --- | --- | --- | --- | --- | --- |
| < 0.001 |  |  |  |  |  | 5B9.1 (antibody, V domains shown, Murine hybridoma antibody) VH: EVQLQQSGPELVKPGASVKMSCKASGYTFTDYYMKWMKQSHGKSLEWIGHINPNNGDTFYNQKFTGKATLTVDKSSSTASMHLNSLTSEDSAVYYCARGGDGRGTWFAYWGQGTLVTVSS VL: not shown | no binding (tested: 1 µg of hybridoma antibody) | no binding (tested: 1 µg of hybridoma antibody) |  |
|  | 0.00121 | 0.253 | 0.486 | 0.187 | 0.0129 | JS007-20 (antibody, V domains shown, also called JS007-20 chimeric antibody) VH: EVQLQQSGPELVKPGASVKMSCKASGYTFTDYYMKWMKQSHGKSLEWIGHINPNNGDTFYNQKFTGKATLTVDKSSSTASMHLNSLTSEDSAVYYCARGGDGRGTWFAYWGQGTLVTVSS VL: not shown |  |  |  |
|  |  |  |  |  |  | JS007-11 (antibody, V domains shown, also called chimeric antibody JS007-11 (4B7.1-1 VH with 4B7.1-1 VL)) VH: EVQLQQSGAELVKSGASVKLSCTGSGFNIKDTYMHWVKQRPEEGLEWIGRIDPANGNTKSDPKFQGKATITADTSSNTAYLQLSSLTSVDTAVYYCARSMTTDPFTYWGQGTLVTVSS VL: DIVMTQSQKFMSTSVGDSVSVTCKASQNVGTYVAWYQQKPGQSPKPLIYSTSYRYSGVPDRFTGSGSGTDFTLTISNVQSEDLAEYFCHQYDTYPLTFGAGTKLELK |  |  | EC50 [9]: ~4010 µg/mL |
| < 0.001 |  |  |  |  |  | 3E6.1 (antibody, V domains shown, Murine hybridoma antibody) VH: EVKLVESGGGLVQPGGSLRLSCATSGFTFTDYYMSWVRQPPGKALEWLGFIRNKANGFTAEYSASVKGRFTISRDNSQSILYLQMNTLRAEDSATYYCARDSLAYPHYYAMDYWGQGTSVTVSS VL: QIVLTQSPALMSASPGEKVTMTCSASSSVSYMYWYQQKPRSSPKPWIYLTSNLASGVPVRFSGSGSGTSYSLTISSMEAEDAATYYCQQWSSNSFTFGSGTKLEIK | no binding (tested: 1 µg of hybridoma antibody) | no binding (tested: 1 µg of hybridoma antibody) |  |
|  |  |  |  |  |  | JS007-1 (antibody, V domains shown, also called chimeric antibody JS007-1 (1A5.1 VH with 1A5.1 VL)) VH: DVQLQESGQGLVKPSQSLSLTCSVTGYSITSGYYWNWIRQFPGNKLEWLGYIGYDGSNYYNPSLKNRISITRDTSKNQFFLKLNSVTSEDTATYFCARNYYSGYFDFWGQGTTLTVSS VL: DIVMTQSQKFMSTSVGDRVSVTCKASQIVGSYVAWYQQKLGQSPKALIYSTSYRHSGVPDRFTGSGSGTDFTLTISNVQSEDLAEYFCQQHHLPLTFGAGTKLEIK |  |  | EC50 [10]: 0.00418 µg/mL; EC50 [9]: ~788 µg/mL |
| 1.74 |  |  |  |  |  | 1A5.1 (antibody, V domains shown, Murine hybridoma antibody) VH: DVQLQESGQGLVKPSQSLSLTCSVTGYSITSGYYWNWIRQFPGNKLEWLGYIGYDGSNYYNPSLKNRISITRDTSKNQFFLKLNSVTSEDTATYFCARNYYSGYFDFWGQGTTLTVSS VL: DIVMTQSQKFMSTSVGDRVSVTCKASQIVGSYVAWYQQKLGQSPKALIYSTSYRHSGVPDRFTGSGSGTDFTLTISNVQSEDLAEYFCQQHHLPLTFGAGTKLEIK | no binding (tested: 1 µg of hybridoma antibody) | no binding (tested: 1 µg of hybridoma antibody) |  |
|  | 0.000699 | 0.196 | 0.249 | 0.19 | 0.0172 | JS007-3 (antibody, V domains shown, also called JS007-3 chimeric antibody) VH: DVQLQESGQGLVKPSQSLSLTCSVTGYSITSGYYWNWIRQFPGNKLEWLGYIGYDGSNYYNPSLKNRISITRDTSKNQFFLKLNSVTSEDTATYFCARNYYSGYFDFWGQGTTLTVSS VL: DIVMTQSQKFMSTSVGDSVSVTCKASQNVGTYVAWYQQKPGQSPKPLIYSTSYRYSGVPDRFTGSGSGTDFTLTISNVQSEDLAEYFCHQYDTYPLTFGAGTKLELK |  |  |  |
|  | 0.000398 | 0.0816 | 0.189 | 0.19 | 0.0197 | JS007-15 (antibody, V domains shown, also called JS007-15 chimeric antibody) VH: DVQLQESGPGLVKPSQSLSLTCSVTAYSITSGYYWNWIRQFPGNKLEWMGYIGYDGSNNYNPSLKNRISITRDTSKNQFFLKLNSVTTEDTATYYCARDYYSGYFDSWGQGTTLTVSS VL: DIVMTQSQKFMSTSVGDSVSVTCKASQNVGTYVAWYQQKPGQSPKPLIYSTSYRYSGVPDRFTGSGSGTDFTLTISNVQSEDLAEYFCHQYDTYPLTFGAGTKLELK |  |  |  |
